According to article PMC9232890:

Target: NIST mAb
Assay: AUC

- amount of dimer (%), fit of 20 scans: 3%
- amount of dimer (%), fit of 50 scans: 3%
- amount of dimer (%), fit of 100 scans: 3%
- amount of dimer (%), fit of 250 scans: 3%
Substance: NIST mAb (antibody)
